B1: Ras-related protein Rab-9A (Homo sapiens), P51151 (parent)
chain: MAGKSSLFKVILLGDGGVGKSSLMNRYVTNKFDTQLFHTIGVEFLNKDLEVDGHFVTMQIWDTAGQERFRSLRTPFYRGSDCCLLTFSVDDSQSFQNLSNWKKEFIYYADVKEPESFPFVILGNKIDISERQVSTEEAQAWCRDNGDYPYFETSAKDATNVAAAFEEAVRRVLATEDRSDHLIQTDTVNLHRKPKPSSSCC
partner: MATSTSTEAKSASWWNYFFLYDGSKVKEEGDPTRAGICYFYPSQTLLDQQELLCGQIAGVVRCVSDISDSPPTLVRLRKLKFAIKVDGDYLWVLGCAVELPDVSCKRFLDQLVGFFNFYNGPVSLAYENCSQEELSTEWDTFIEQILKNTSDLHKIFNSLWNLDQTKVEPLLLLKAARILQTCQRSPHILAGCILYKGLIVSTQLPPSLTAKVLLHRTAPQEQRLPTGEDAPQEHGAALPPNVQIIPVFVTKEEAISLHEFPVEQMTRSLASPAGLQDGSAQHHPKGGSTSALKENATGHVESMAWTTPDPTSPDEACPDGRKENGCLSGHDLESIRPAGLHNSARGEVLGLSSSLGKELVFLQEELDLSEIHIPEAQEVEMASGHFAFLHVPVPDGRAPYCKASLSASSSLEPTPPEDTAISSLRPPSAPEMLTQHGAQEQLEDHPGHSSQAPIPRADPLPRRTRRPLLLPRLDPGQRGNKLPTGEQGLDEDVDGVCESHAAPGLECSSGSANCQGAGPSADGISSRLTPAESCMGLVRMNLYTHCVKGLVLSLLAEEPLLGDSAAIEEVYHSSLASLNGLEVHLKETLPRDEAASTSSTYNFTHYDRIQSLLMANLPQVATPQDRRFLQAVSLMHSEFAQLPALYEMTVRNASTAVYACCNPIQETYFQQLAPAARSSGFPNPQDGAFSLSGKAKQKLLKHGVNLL

Variants of: B1
Conditions: with hps4_human HPS4, Q9NQG7

| Variant | effect of a mutation on the interaction |
| --- | --- |
| MAGKSSLFKVILLGDGGVGKSSLMNRYVTNKFDTQLFHTAGVEFLNKDLEVDGHFVTMQIWDTAGLERFRSLRTPFYRGSDCCLLTFSVDDSQSFQNLSNWKKEFIYYADVKEPESFPFVILGNKIDISERQVSTEEAQAWCRDNGDYPYFETSAKDATNVAAAFEEAVRRVLATEDRSDHLIQTDTVNLHRKPKPSSSCC [I40A;Q66L] | disrupting interaction strength |
| MAGKSSLFKVILLGDGGVGKSSLMNRYVTNKFDTQLFATIGVEFLNKDLEVDGHFVTMQIWDTAGLERFRSLRTPFYRGSDCCLLTFSVDDSQSFQNLSNWKKEFIYYADVKEPESFPFVILGNKIDISERQVSTEEAQAWCRDNGDYPYFETSAKDATNVAAAFEEAVRRVLATEDRSDHLIQTDTVNLHRKPKPSSSCC [H38A;Q66L] | with no effect |
| MAGKSSLFKVILLGDGGVGKSSLMNRYVTNKFDAQLFHTIGVEFLNKDLEVDGHFVTMQIWDTAGLERFRSLRTPFYRGSDCCLLTFSVDDSQSFQNLSNWKKEFIYYADVKEPESFPFVILGNKIDISERQVSTEEAQAWCRDNGDYPYFETSAKDATNVAAAFEEAVRRVLATEDRSDHLIQTDTVNLHRKPKPSSSCC [T34A;Q66L] | with no effect |
| MAGKSSLFKVILLGDGGVGKSSLMNRYVTNKFDTQLFHTIGAEFLNKDLEVDGHFVTMQIWDTAGLERFRSLRTPFYRGSDCCLLTFSVDDSQSFQNLSNWKKEFIYYADVKEPESFPFVILGNKIDISERQVSTEEAQAWCRDNGDYPYFETSAKDATNVAAAFEEAVRRVLATEDRSDHLIQTDTVNLHRKPKPSSSCC [V42A;Q66L] | with no effect |
| MAGKSSLFKVILLGDGGVGKSSLMNRYVTNKFDTALFHTIGVEFLNKDLEVDGHFVTMQIWDTAGLERFRSLRTPFYRGSDCCLLTFSVDDSQSFQNLSNWKKEFIYYADVKEPESFPFVILGNKIDISERQVSTEEAQAWCRDNGDYPYFETSAKDATNVAAAFEEAVRRVLATEDRSDHLIQTDTVNLHRKPKPSSSCC [Q35A;Q66L] | with no effect |

Results, then the variant that gave them:

| effect of a mutation on the interaction | Variant |
| --- | --- |
| with no effect | MAGKSSLFKVILLGDGGVGKSSLMNRYVTNKFDTQLFHTIGVEFLNKDLEVDGHFVTMQIWDTAGLERFRSARTPFYRGSDCCLLTFSVDDSQSFQNLSNWKKEFIYYADVKEPESFPFVILGNKIDISERQVSTEEAQAWCRDNGDYPYFETSAKDATNVAAAFEEAVRRVLATEDRSDHLIQTDTVNLHRKPKPSSSCC [Q66L;L72A] |
| disrupting interaction strength | MAGKSSLFKVILLGDGGVGKSSLMNRYVTNKFDTQLFHTIGVEFLNKDLEVDGHFVTMQIADTAGLERFRSLRTPFYRGSDCCLLTFSVDDSQSFQNLSNWKKEFIYYADVKEPESFPFVILGNKIDISERQVSTEEAQAWCRDNGDYPYFETSAKDATNVAAAFEEAVRRVLATEDRSDHLIQTDTVNLHRKPKPSSSCC [W61A;Q66L] |
| disrupting interaction strength | MAGKSSLFKVILLGDGGVGKSSLMNRYVTNKFDTQLFHTIGVEALNKDLEVDGHFVTMQIWDTAGLERFRSLRTPFYRGSDCCLLTFSVDDSQSFQNLSNWKKEFIYYADVKEPESFPFVILGNKIDISERQVSTEEAQAWCRDNGDYPYFETSAKDATNVAAAFEEAVRRVLATEDRSDHLIQTDTVNLHRKPKPSSSCC [F44A;Q66L] |
| with no effect | MAGKSSLFKVILLGDGGVGKSSLMNRYVTNKFDTQLFHTIGVEFLNKDLEVDGHFVTMQIWDTAGLERFRSLRTPFYRGSDCCLLTFSVDDSQSFQNLSNWKKEFIYYADVKEPESFPFVILGNKIDISERQVSTEEAQAWCRDNGDYPYFETSAKDATNVAAAFEEAVRRVLATEDRSDHLIQTDTVNLHRKPKPSSSCC [Q66L] |
| with no effect | MAGKSSLFKVILLGDGGVGKSSLMNRYVTNKFDTQLFHTIGVEFLNKDLEVDGHFVTMQIWDTAGLERFRSLRTPAYRGSDCCLLTFSVDDSQSFQNLSNWKKEFIYYADVKEPESFPFVILGNKIDISERQVSTEEAQAWCRDNGDYPYFETSAKDATNVAAAFEEAVRRVLATEDRSDHLIQTDTVNLHRKPKPSSSCC [Q66L;F76A] |

From IntAct's records for PubMed 20048159
